± gives the standard deviation of the averaged measurements.
System: ATP
Assay: switch fluorescence ratio, 500 uM ATP over buffer (Cy3 cluster intensity, sum of 5 cycles each) (fold (ratio)); higher = stronger signal-on switching upon ATP binding; sequences stand for … in TCGTCGGCAGCGTCAGATGTGTATAAGAGACAGTTTTTTTTTTTTTTTTTTTTTTTTT…TC
Settings: aptamer strand: ATP DNA aptamer (quencher-CACCTGGGGGAGTATTGCGGAGGAAGG + anchor), 100 nM annealed; ATP concentration: 500 uM
Outline: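 Clusters with intensities outside 100-1000 RFU were excluded. The remaining Cy3-labelled switching-strand clusters on a modified Illumina MiSeq flow-cell had been annealed to 100 nM quencher-labelled ATP aptamer and imaged in selection buffer, then after 15 min with 500 uM ATP at 22 °C, for five cycles separated by NaOH stripping and re-annealing. The fluorescence ratio, averaged per switch-domain sequence, is each cluster's summed target-cycle Cy3 intensity over its summed buffer-cycle Cy3 intensity.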
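Also: ATP exposure 15 min at 22 °C before imaging.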

Sequence | switch fluorescence ratio
GATTGTAGTT | 0.9586 ± 0.0034
GAGTACCACT | 1.01 ± 0.078
ATGGCGGCGT | 0.959 ± 0.035
GGTTAAGTTT | 0.969 ± 0.025
ATGATATTTT | 0.986 ± 0.027
TATTTAAAAC | 1.03 ± 0.021
ATGGCTTTTG | 1.02 ± 0.037
GAAGTTGGTG | 0.987 ± 0.026
GGGAGTAAGG | 1.024 ± 0.0025
GGGTCTCGTT | 1.01 ± 0.013
CAAAAGTCGG | 1.02 ± 0.012
CCGGGAGAAA | 1.28 ± 0.02
TCAGGAGTCT | 0.977 ± 0.062
GCAATTCAGA | 1.064 ± 0.0099
CCAGCATAGA | 1.14 ± 0.044
GACTCGAGGC | 1.05 ± 0.06
GGAAGGTAAT | 1 ± 0.048
GGGCAATATG | 1.17 ± 0.06
GGACGGAATG | 0.955 ± 0.02
GCCATAGCCT | 0.9953 ± 0.0084
GCAAGCGGGA | 1.07 ± 0.079
CGATGCTAGT | 1.07 ± 0.037
AACTCGGGGG | 0.999 ± 0.027

Sequence | switch fluorescence ratio
AATATATACG | 1.0252 ± 0.00079
TTGGTAGGGC | 0.97013 ± 0.0006
TTTAGGAAGT | 1.0072 ± 0.00083
ATTAGTAAGG | 1.01 ± 0.011
AAATATTGTG | 0.982 ± 0.023
GTATGTTGCG | 0.96532 ± 0.00026
AGAGTCTATC | 0.972 ± 0.044
TTGGAGGCCC | 0.9801 ± 0.0029
TTTGACGG | 0.972 ± 0.023
AGTGATTGCA | 1.007 ± 0.004
GATAATGCGG | 1.01 ± 0.025
TGCGCTTTTT | 1.03 ± 0.061
CTAGGTGACG | 1.004 ± 0.0075
CACGGTTTGT | 0.985 ± 0.018
ATTTTTTGAA | 0.997 ± 0.019
CGGATAGAAT | 0.984 ± 0.029
CTCTAAGTCG | 0.976 ± 0.011
AAAAAATTTA | 0.996 ± 0.043
TTACGCATTT | 1.12 ± 0.08
AATGTGTTGG | 0.984 ± 0.025
CAGTGTACGG | 1.04 ± 0.013
AACCGTGGTG | 1.05 ± 0.073
TCACGGGTGC | 1.91 ± 0.19

Sequence | switch fluorescence ratio
AAGTGCTACC | 1.02 ± 0.06
CTCTTTGGAC | 1.53 ± 0.89
GTCGTTCGCA | 1.15 ± 0.11
TCGGCACCGG | 1.02 ± 0.024
TGTGGTTGCG | 1.01 ± 0.017
CTAGCCATTG | 0.995 ± 0.022
CGATGGAGGA | 0.98967 ± 0.00091
CGCGGCTGGG | 1 ± 0.026
CGTTTCATCT | 0.987 ± 0.065
GCGGTACTCT | 2.27 ± 0.41
TGTAGGGAGG | 0.966 ± 0.053
GGGCCAGTAT | 0.963 ± 0.017
GTGGGACACG | 1.01 ± 0.048
CTCGGGATCA | 1.011 ± 0.0028
GTTAGAGGGC | 1 ± 0.011
ACTGCGGGAC | 1.51 ± 0.69
GAAGAGAGGC | 0.96 ± 0.024
TTTGTCTGGA | 0.991 ± 0.032
GTGTGGATCA | 0.9867 ± 0.0093
CGTATATAGT | 1.01 ± 0.014
TTTATTGAGT | 0.978 ± 0.048
TTCCAGGCAA | 4.47 ± 0.45
AGTTACAGGG | 1.05 ± 0.019

Sequence | switch fluorescence ratio
CGTGTCGCCT | 1.01 ± 0.015
GCTGGGAGGG | 0.979 ± 0.022
GGATCAAAAG | 1.01 ± 0.018
GAGCAGGTTT | 1.6 ± 0.92
CGTATTCGCT | 0.993 ± 0.021
CTATGACGTT | 0.998 ± 0.019
AGGAGTAATT | 1.01 ± 0.024
GGAGGCAGGA | 1.015 ± 0.0036
TAGATTGTTT | 0.998 ± 0.021
ATTGAATGTG | 0.973 ± 0.013
CAGTTTAGCT | 1.02 ± 0.015
CGGGATTATC | 1.01 ± 0.021
ATGAGTGGGG | 1.01 ± 0.029
TAGAGTTTTA | 0.972 ± 0.022
AGCAGCGGGC | 0.997 ± 0.043
TAGTCAGAGG | 1.01 ± 0.012
GTCAATTGGG | 0.992 ± 0.044
TAGACGCTCA | 1.105 ± 0.0057
TCAGCCCCAT | 1.033 ± 0.0072
CAATAGAGGG | 0.991 ± 0.033
AAAATATTTG | 0.964 ± 0.011
AGTGGTTGAA | 0.99 ± 0.028
GGCGAGGGGC | 1.01 ± 0.036

Sequence | switch fluorescence ratio
CCAGCTGGAT | 1.015 ± 0.0088
GAAGCGTGTC | 1.02 ± 0.017
CATTGGTTTG | 1.01 ± 0.048
GTGGCTGAGG | 1.004 ± 0.0082
TAAGGGTTAT | 0.978 ± 0.023
CCTGCCCTGT | 1.108 ± 0.0022
CGGGAACTCG | 1.01 ± 0.04
TTGATTTTAA | 1 ± 0.014
AGGCTTACTC | 1.39 ± 0.028
AGATGTTCGG | 0.975 ± 0.025
AATTAGATTT | 1.021 ± 0.0055
GGTGATAGTT | 0.994 ± 0.017
ACGGAGGGTG | 1.029 ± 0.0088
ATGACGGTAG | 0.97 ± 0.062
GCGTTGTTGT | 0.981 ± 0.02
AGGAGGGATA | 1.04 ± 0.015
CGCTATGGGG | 1.02 ± 0.059
TAGTCAGAAT | 0.967 ± 0.012
AAGCTAGGGA | 1.01 ± 0.05
TGCGTACTAT | 1.06 ± 0.1
AGCTAGAGTC | 1.03 ± 0.028
TTTTGGGCGT | 1 ± 0.062
TAGTATGAGG | 0.976 ± 0.021

Sequence | switch fluorescence ratio
GTGTTTAAGA | 1.01 ± 0.026
CATTGGTAGG | 0.987 ± 0.019
GAAAGGGGGA | 1.02 ± 0.025
GATATCTGGA | 1.018 ± 0.0099
AAGAGGGCAG | 0.992 ± 0.0081
TTTGAGCCCC | 1.04 ± 0.1
AAGTTAATGG | 1.015 ± 0.0071
TGGGATGAGT | 1.007 ± 0.0081
TTTGTCTATA | 1 ± 0.017
GCTATGAATG | 1.01 ± 0.024
GCCTATAGTC | 0.991 ± 0.03
CTGAGATTTT | 0.931 ± 0.018
CACGAAGGTG | 1.16 ± 0.032
TAGATGCGGT | 1.01 ± 0.032
CGGTCGGGAA | 1.005 ± 0.01
ATCAGAGGTG | 1.14 ± 0.0059
GGTTTTGTAG | 0.999 ± 0.012
TCATGGTCGT | 0.982 ± 0.023
ACAGTTATTC | 1.02 ± 0.048
ACTAGGCTGG | 1.01 ± 0.028
CCGTTTGTGC | 1.21 ± 0.063
CGGGTGAGTT | 1.15 ± 0.25
TTGACAAACG | 1.1 ± 0.054

Sequence | switch fluorescence ratio
GCCTTAGGGT | 1.015 ± 0.0029
GGGGCAGCAG | 1.02 ± 0.031
CCTCTATTCA | 1.06 ± 0.019
CACATTACAT | 1.28 ± 0.1
ATCAGTTGTT | 1.0008 ± 0.00044
TAGGGGACAA | 1 ± 0.035
CAGGCGGAAA | 0.98 ± 0.015
TTCAATATGT | 0.991 ± 0.049
ATTTTTAAGA | 1 ± 0.012
TCGCGAGGGG | 0.997 ± 0.025
GAATGGCGG | 0.998 ± 0.041
GGGTCTTGGG | 0.9482 ± 0.008
TTAGTGGAAT | 0.9552 ± 0.0073
AACTGTGTG | 0.987 ± 0.043
GATCGCCGTT | 1.07 ± 0.063
GGCCAGTTTG | 0.986 ± 0.018
TTTACTCGGA | 1.033 ± 0.0099
TTTAAGGGCG | 0.981 ± 0.045
AATCAGAAAG | 1.15 ± 0.24

Source: the supplement of paper PMC10126150
